Source: US20180201654A1, “PEPTIDE INHIBITORS OF HAUSP DEUBIQUITINASE” (priority 2012, published 2018)

Assays:
[1] = target: T1, HAUSP TRAF domain HAUSP^62-205 (Homo sapiens, UniProt Q93009); assay type: binding; set-up: All residues of HAUSP^62-205, with the exception of Asp^62, are included in the final model; hexahistidine tag (TEV-cleavable) (cleaved yes); made in house; host or cells: E. coli BL21 (DE3) RIPL; settings: for Ka / TΔS / ΔG: ITC, 20° C., pH 7.0
Description: FIG. 5. Typical isothermal titration calorimetric measurements of the interactions between the HAUSP TRAF domain and the vIRF4 protein derivatives or other peptides. Purified proteins and synthesized peptides were reconstituted in 150 mM NaCl and 10 mM HEPES (pH 7.0). The calorimetric assays were performed using a VPITC system. All experiments were carried out with a stirring speed of 300 rpm at 20° C., and the thermal power was recorded every 10 s. Data were analyzed using the ORIGIN software package (version 7.0). […] Each titration against the HAUSP TRAF domain is indicated in each panel.
Purified proteins and synthesized peptides (Peptron Inc., Deajeon, Korea) were reconstituted in 150 mM NaCl and 10 mM HEPES (pH 7.0). The calorimetric assays were performed using a VP-ITC system (MicroCal Inc., Northampton, Mass.). Samples were degassed by vacuum aspiration for 15 min prior to loading. All experiments were carried out with a stirring speed of 300 rpm at 20° C., and the thermal power was recorded every 10 s. Data were analyzed using the ORIGIN software package (version 7.0) supplied with the instrument. […] (SEQ ID NO: 6); EBNA1^435-449, […] (SEQ ID NO: 7); MDM2^137-152, […] […] (SEQ ID NO: 10). Each set of ITC experiments was repeated two or three times.

[2] = target: T1, HAUSP TRAF domain HAUSP^62-205; test: Size exclusion chromatography of complex formation in excess MDM2^137-152; assay type: binding; set-up: hexahistidine tag (TEV-cleavable) (cleaved yes); made in house; host or cells: E. coli BL21 (DE3) RIPL; settings: in the presence of a 5-fold molar excess of MDM2^137-152

T1 sequence (Q93009 62-205): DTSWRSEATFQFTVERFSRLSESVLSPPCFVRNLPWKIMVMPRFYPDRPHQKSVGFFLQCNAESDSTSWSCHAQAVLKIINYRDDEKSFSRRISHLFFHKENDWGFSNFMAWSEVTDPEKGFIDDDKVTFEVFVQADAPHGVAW

| Molecule | Ka [1] | TΔS [1] | ΔG [1] | TRAF binding affinity (in words) ([1]; ITC comparison) | complex formation with the TRAF domain [2] |
| --- | --- | --- | --- | --- | --- |
| vIRF4^153-256 (protein) SDTREQSYEEAGAAAPAPPKAPSGLRGRPRKSNRYYNVGDITTEQKAACSVWIPVNEGASTSGMGSSGTRQVTQASSFTWRVPGDPPAPSTLTGPSDPHSSGAG | 13.20 ± 0.85 10^6 M^−1 | -10.05 kcal/mol | -7.64 kcal/mol | – | – |
| vIRF4^153-216 (protein) SDTREQSYEEAGAAAPAPPKAPSGLRGRPRKSNRYYNVGDITTEQKAACSVWIPVNEGASTSGM | 1.84 ± 0.10 10^6 M^−1 | -7.35 kcal/mol | -8.41 kcal/mol | comparable TRAF binding affinity | formed a stable complex |
